Legend:
Human Rac1 [1] = target: Human Rac1 (human, UniProt P63000 1-192); assay: BLI; ForteBio BLItz; His-GEF1 (0.5 uM) or SR6-GEF1 (2 uM) loaded on Ni-NTA biosensors; nucleotide-free Rac1 at 4-5 concentrations in assay buffer (20 mM Hepes pH 7.25, 150 mM KCl, 5% glycerol, 0.01% TritonX-100, 1 mM DTT); Kd = koff/kon from the linear fit of kobs against Rac1 concentration; settings: both partners purified
Human Rac1 [2] = target: Human Rac1 (human, UniProt P63000 1-192); assay: as above; settings: both partners purified; remark: listed apart in the source

B1: Human Trio SR6-GEF1 (domain or fragment)
chain: not shown
notes: Trio, human, spectrin repeats 6-9 appended to the GEF1 domain, 99 kDa; amino acids 788 to 1599 as stated for SR6-GEF1 in the modelling paragraph; Cloned into the pFastBac1 HTa vector; The limits 788-1599 are printed for the modelled SR6-GEF1, not in the cloning paragraph; also called His-SR6-GEF1; WT SR6-GEF1; source: Hi5 cells infected with baculovirus, purified (Ni-NTA, S200 Increase)
- Kd (Human Rac1 [1]): 316 nM

B2: Human Trio GEF1 (domain or fragment)
chain: not shown
modifications: His tag omitted (used for Ni-NTA immobilization). The GEF1 limits are not printed: the C-terminus 1599 comes from the printed SR6-GEF1 construct (788-1599), and the N-terminus about 1284 follows the …
- Kd (Human Rac1 [2]): 151 nM
